Experimental findings from patent publication US20140348781A1 are described below.

Test [1] addresses IL9 receptor (IL9R) (UniProt Q01114). The test can be described thus: cell-based or functional assay.
In test [2] the target is GMCSF receptor (GMCSFR) (UniProt Q00941). In words: cell-based or functional assay.
Sequence of UniProt Q00941 (Q00941 30-388, chain 1 of 2): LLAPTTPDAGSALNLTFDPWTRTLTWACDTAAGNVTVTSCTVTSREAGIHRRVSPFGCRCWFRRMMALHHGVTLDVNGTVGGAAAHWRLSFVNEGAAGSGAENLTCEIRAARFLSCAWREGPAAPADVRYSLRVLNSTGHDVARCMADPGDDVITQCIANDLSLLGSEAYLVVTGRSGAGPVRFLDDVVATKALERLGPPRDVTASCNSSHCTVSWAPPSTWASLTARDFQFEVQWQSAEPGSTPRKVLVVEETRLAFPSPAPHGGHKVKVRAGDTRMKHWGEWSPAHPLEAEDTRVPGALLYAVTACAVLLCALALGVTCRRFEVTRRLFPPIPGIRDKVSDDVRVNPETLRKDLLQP
Sequence of UniProt Q00941 (P26955 23-896, chain 2 of 2, further chain): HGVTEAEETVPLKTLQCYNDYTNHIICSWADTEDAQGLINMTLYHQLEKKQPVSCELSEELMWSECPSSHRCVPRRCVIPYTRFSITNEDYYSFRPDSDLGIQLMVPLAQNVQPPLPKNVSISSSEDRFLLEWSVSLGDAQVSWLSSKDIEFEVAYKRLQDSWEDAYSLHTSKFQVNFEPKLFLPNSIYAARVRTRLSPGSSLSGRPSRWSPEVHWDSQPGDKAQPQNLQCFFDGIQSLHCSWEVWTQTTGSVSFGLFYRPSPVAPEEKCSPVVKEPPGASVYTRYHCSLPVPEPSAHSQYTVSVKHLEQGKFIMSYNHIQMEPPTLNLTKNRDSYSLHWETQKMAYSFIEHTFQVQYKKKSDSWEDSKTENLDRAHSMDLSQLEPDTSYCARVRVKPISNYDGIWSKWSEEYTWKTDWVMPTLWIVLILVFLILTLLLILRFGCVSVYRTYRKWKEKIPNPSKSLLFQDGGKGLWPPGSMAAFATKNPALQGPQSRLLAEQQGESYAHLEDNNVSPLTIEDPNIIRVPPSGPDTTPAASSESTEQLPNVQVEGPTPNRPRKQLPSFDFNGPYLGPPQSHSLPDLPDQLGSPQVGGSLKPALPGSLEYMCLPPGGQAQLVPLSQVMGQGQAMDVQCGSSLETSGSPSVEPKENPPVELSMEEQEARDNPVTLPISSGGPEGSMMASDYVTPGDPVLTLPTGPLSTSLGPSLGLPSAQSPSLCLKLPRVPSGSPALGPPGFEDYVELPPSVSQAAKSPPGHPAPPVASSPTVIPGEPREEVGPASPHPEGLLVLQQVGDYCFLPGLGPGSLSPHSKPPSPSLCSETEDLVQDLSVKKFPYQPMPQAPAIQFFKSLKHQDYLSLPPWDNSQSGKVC

Sequence of UniProt Q01114 (Q01114 38-468 limits assumed, chain 1 of 2): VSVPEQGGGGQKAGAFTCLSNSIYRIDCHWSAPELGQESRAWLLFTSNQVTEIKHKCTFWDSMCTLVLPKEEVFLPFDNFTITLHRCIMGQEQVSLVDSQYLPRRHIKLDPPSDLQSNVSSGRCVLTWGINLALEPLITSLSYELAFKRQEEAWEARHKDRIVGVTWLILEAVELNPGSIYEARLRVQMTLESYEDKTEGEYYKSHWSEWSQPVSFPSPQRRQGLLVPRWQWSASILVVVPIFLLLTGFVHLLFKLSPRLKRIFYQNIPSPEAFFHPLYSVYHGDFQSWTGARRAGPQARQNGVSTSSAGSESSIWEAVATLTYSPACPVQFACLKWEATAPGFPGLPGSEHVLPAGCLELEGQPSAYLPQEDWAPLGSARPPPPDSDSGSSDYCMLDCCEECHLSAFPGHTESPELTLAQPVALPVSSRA
Sequence of UniProt Q01114 (P34902 23-369 limits assumed, chain 2 of 2, further chain): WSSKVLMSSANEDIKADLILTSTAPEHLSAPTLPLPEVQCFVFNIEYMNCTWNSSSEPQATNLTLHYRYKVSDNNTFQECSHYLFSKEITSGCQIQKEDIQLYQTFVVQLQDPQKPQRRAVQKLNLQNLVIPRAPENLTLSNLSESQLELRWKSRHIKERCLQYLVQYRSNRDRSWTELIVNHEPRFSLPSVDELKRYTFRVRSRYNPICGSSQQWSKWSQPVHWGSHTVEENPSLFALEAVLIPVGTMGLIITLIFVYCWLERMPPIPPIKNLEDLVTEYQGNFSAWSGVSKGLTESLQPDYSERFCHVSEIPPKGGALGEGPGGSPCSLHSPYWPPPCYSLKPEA

“mouse GIFT9 (fusion of mouse GMCSF and mouse IL9) (ligand)”: the proliferative rate of bone marrow derived mast cells (MTT assay, 5 days) in test [1] and in test [2] was 100% each time.
